This data set relates to CC(C)CCCCCCC/C=C\C(=O)O. In words: purified protein. As to conditions: pH 7.0 phosphate (standard of pH 6, 7, 8 tested); co-substrates 5 mM ATP, 0.5 mM CoA; 10 mM MgCl2, 2 mM EDTA, 0.1% Triton X-100; 37°C in b48 (28°C elsewhere in the source).

With “RpfB (Xanthomonas campestris pv. campestris str. ATCC 33913)”, the Km turned out to be 6.5 µM.

Usually Km stands for the concentration of substrate that gives half-maximal velocity.

The values are drawn from paper PMC9040794, “The Plant Defense Signal Salicylic Acid Activates the RpfB-Dependent Quorum Sensing Signal Turnover via Altering the Culture and Cytoplasmic pH in the Phytopathogen Xanthomonas campestris” (mBio, 2022).
